Where a chain is given by its changes, count along the chain named. Names may count otherwise.
T1: FLAG-tagged PlexinA4 extracellular region (mouse, UniProt Q80UG2 33-1226)
T1 construct: mouse PlexinA4 residues 33–1226, extracellular region; FLAG inserted immediately after the signal peptide; also called PlexinA4-WT; source: Expi293F, purified from medium (Ni-NTA, Superose 6); not shown: FLAG, N-terminal, kept
T1 sequence (looked up): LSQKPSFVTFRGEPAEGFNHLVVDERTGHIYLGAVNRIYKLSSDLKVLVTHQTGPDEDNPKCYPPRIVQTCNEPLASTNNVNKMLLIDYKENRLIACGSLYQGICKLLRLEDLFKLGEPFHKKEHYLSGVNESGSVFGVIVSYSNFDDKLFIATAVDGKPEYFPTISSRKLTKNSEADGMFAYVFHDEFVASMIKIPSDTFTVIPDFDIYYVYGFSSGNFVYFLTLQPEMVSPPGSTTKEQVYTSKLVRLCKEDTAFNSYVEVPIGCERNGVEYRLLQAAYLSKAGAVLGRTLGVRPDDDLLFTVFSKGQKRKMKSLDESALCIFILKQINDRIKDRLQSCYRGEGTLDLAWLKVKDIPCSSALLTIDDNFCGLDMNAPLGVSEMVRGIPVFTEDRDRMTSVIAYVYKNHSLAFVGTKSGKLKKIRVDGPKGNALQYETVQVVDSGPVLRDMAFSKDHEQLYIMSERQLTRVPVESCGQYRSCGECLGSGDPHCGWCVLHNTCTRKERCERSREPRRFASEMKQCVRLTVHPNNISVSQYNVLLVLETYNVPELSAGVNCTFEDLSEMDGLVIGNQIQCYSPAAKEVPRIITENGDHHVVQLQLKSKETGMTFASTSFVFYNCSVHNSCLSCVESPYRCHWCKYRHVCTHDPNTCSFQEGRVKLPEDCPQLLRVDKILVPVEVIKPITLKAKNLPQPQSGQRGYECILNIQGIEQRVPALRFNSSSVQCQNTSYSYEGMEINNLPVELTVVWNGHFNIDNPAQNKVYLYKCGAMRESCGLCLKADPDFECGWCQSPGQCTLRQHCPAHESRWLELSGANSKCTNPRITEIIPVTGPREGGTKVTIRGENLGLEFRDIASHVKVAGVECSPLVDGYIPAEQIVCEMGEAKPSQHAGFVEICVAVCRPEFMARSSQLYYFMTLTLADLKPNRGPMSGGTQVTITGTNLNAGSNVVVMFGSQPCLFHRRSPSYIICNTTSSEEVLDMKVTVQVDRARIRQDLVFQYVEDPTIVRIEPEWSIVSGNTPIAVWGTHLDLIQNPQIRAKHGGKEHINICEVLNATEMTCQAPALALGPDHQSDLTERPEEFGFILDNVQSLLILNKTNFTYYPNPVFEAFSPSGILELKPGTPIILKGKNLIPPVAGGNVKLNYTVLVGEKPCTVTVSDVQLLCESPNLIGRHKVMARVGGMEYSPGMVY

T2: FLAG-tagged PlexinA4 extracellular region K343E (mouse, UniProt Q80UG2 33-1226, K343E)
T2 construct: mouse PlexinA4 residues 33–1226, extracellular region, K343E; also called PlexinA4-K343E; source: Expi293F, purified from medium (Ni-NTA, Superose 6); not shown: FLAG, N-terminal, kept
T2 sequence (looked up): T1 sequence (looked up) with K311E

B1: Sema3A (21–770) (ligand, mouse, UniProt O08665 21-770, looked up)
chain: NYANGKNNVPRLKLSYKEMLESNNVITFNGLANSSSYHTFLLDEERSRLYVGAKDHIFSFNLVNIKDFQKIVWPVSYTRRDECKWAGKDILKECANFIKVLEAYNQTHLYACGTGAFHPICTYIEVGHHPEDNIFKLQDSHFENGRGKSPYDPKLLTASLLIDGELYSGTAADFMGRDFAIFRTLGHHHPIRTEQHDSRWLNDPRFISAHLIPESDNPEDDKVYFFFRENAIDGEHSGKATHARIGQICKNDFGGHRSLVNKWTTFLKARLICSVPGPNGIDTHFDELQDVFLMNSKDPKNPIVYGVFTTSSNIFKGSAVCMYSMSDVRRVFLGPYAHRDGPNYQWVPYQGRVPYPRPGTCPSKTFGGFDSTKDLPDDVITFARSHPAMYNPVFPINNRPIMIKTDVNYQFTQIVVDRVDAEDGQYDVMFIGTDVGTVLKVVSVPKETWHDLEEILLEEMTVFREPTTISAMELSTKQQQLYIGSTAGVAQLPLHRCDIYGKACAECCLARDPYCAWDGSSCSRYFPTAKARTRAQDIRNGDPLTHCSDLQHHDNHHGPSLEERIIYGVENSSTFLECSPKSQRALVYWQFQRRNEDRKEEIRMGDHIIRTEQGLLLRSLQKKDSGNYLCHAVEHGFMQTLLKVTLEVIDTEHLEELLHKDDDGDGSKIKEMSSSMTPSQKVWYRDFMQLINHPNLNTMDEFCEQVWKRDAAQAAQRPGHSQGSSNKWKHMQESKKGANRATHEFERAPR
notes: mouse Sema3A residues 21–770, ending at Arg770; internal furin sites mutated; without the A106K mutation; PDB 7M0R holds the A106K form; also called Sema3A-WT; wild-type Sema3A; source: Expi293F, purified from medium (Ni-NTA, Superose 6)
B2: Sema3A (21–770) F386A (ligand, mouse, UniProt O08665 21-770, looked up)
chain: B1 chain with F366A
notes: mouse Sema3A residues 21–770 with F386A; internal furin sites mutated; without A106K; also called F386A mutation of Sema3A; source: Expi293F, purified from medium (Ni-NTA, Superose 6)
B3: Sema3A (21–770) K497E (ligand, mouse, UniProt O08665 21-770, looked up)
chain: B1 chain with K477E
notes: mouse Sema3A residues 21–770 with K497E; internal furin sites mutated; without A106K; also called Sema3A-K497E; Seme3A-K497E; source: Expi293F, purified from medium (Ni-NTA, Superose 6)
B4: Nrp1-a1a2b1b2 (receptor, mouse, UniProt P97333 22-588, looked up)
chain: FRSDKCGGTIKIENPGYLTSPGYPHSYHPSEKCEWLIQAPEPYQRIMINFNPHFDLEDRDCKYDYVEVIDGENEGGRLWGKFCGKIAPSPVVSSGPFLFIKFVSDYETHGAGFSIRYEIFKRGPECSQNYTAPTGVIKSPGFPEKYPNSLECTYIIFAPKMSEIILEFESFDLEQDSNPPGGMFCRYDRLEIWDGFPEVGPHIGRYCGQKTPGRIRSSSGVLSMVFYTDSAIAKEGFSANYSVLQSSISEDFKCMEALGMESGEIHSDQITASSQYGTNWSVERSRLNYPENGWTPGEDSYKEWIQVDLGLLRFVTAVGTQGAISKETKKKYYVKTYRVDISSNGEDWISLKEGNKAIIFQGNTNPTDVVLGVFSKPLITRFVRIKPVSWETGISMRFEVYGCKITDYPCSGMLGMVSGLISDSQITASNQADRNWMPENIRLVTSRTGWALPPSPHPYTNEWLQVDLGDEKIVRGVIIQGGKHRENKVFMRKFKIAYSNNGSDWKTIMDDSKRKAKSFEGNNNYDTPELRTFSPLSTRFIRIYPERATHSGLGLRMELLGCEVEAP
notes: mouse Neuropilin 1 residues 22–588, domains a1, a2, b1 and b2; also called MAM-domain truncated version of Nrp1; Nrp1-WT; source: Expi293F, transfected alone or co-expressed with Sema3A and PlexinA4, purified from medium (Ni-NTA, Superose 6)
B5: Nrp1-a1a2b1b2 A252E (receptor, mouse, UniProt P97333 22-588, looked up)
chain: B4 chain with A231E
notes: mouse Neuropilin 1 residues 22–588 (a1a2b1b2) with A252E; also called Nrp1-A252E; A252E mutant; source: Expi293F, purified from medium (Ni-NTA, Superose 6)
B6: Nrp1-a1a2b1b2 E128R (receptor, mouse, UniProt P97333 22-588, looked up)
chain: B4 chain with E107R
notes: mouse Neuropilin 1 residues 22–588 (a1a2b1b2) with E128R; also called Nrp1-E128R; source: Expi293F, purified from medium (Ni-NTA, Superose 6)
B7: Nrp1-a1a2b1b2 H74A (receptor, mouse, UniProt P97333 22-588, looked up)
chain: B4 chain with H53A
notes: mouse Neuropilin 1 residues 22–588 (a1a2b1b2) with H74A; also called H74A mutation of Nrp1; source: Expi293F, purified from medium (Ni-NTA, Superose 6)
B8: Nrp1-a1a2b1b2 S251E (receptor, mouse, UniProt P97333 22-588, looked up)
chain: B4 chain with S230E
notes: mouse Neuropilin 1 residues 22–588 (a1a2b1b2) with S251E; also called Nrp1-S251E; source: Expi293F, purified from medium (Ni-NTA, Superose 6)

Each binder was assayed against T1, FLAG-tagged PlexinA4 extracellular … (assay: pull-down; FLAG-tagged PlexinA4 (20 µg) on anti-FLAG antibody resin; Nrp1 and Sema3A, 30 µg each, added together; 20 mM HEPES (pH 7.5), 150 mM NaCl, 1 mM CaCl2, 4 °C, 1 h; SDS-PAGE, Coomassie blue). Conditions: both partners purified.

Binding result, binds:
B1
B2
B3
B4
B5
B6
B7
B8

What follows are binders tested against T2, FLAG-tagged PlexinA4 extracellular … in the same assay as above. Conditions: both partners purified.

Binding result, binds:
B1
B4
